Data taken from paper PMC3522052, “Association of HLA-DR1 with the allergic response to the major mugwort pollen allergen: molecular background” (BMC Immunology, 2012).

Tests used:
HLA-DRB1*01:01 = target: T1, HLA-DRB1*01:01 (Homo sapiens, UniProt P01903+P01911, A100R/D57E/F55L/F60I/F76Y/I96L/L162R/M171V/P40L/Q125E/R42F/V115G/Y59C); experiment: Peptide/MHC-binding assay, competitive ELISA against biotinylated HA306-318; settings: for binding to DR1 molecules, in words: competition with HA306-318, stated for DR1 or DR4; for ratio of IC50 of Art v 1-peptides/HA306-318, HLA-DR1: relative binding activity, competitive ELISA, pH 6.0, 24 h at 37°C, two independent experiments
T1 construct: endogenous in cells
Method: (§1) HLA-DRB1*01:01 and -DRB1*04:01 molecules were purified from homozygous EBV cells by affinity chromatography using mAb L243 as described before. Peptide binding to HLA-DR molecules was assessed by competitive ELISA. Dilutions were prepared in 10 mM phosphate, 150 mM NaCl, […], 10 mM citrate (pH = 6.0). […] After 24 hours of incubation at 37°C, peptide/MHC-class II complexes were added to 96 well plates coated with L243 antibody and incubated at RT for 2 hours. Bound biotinylated peptides were detected by Streptavidin-alkaline phosphatase conjugate (GE healthcare, Saclay, France) and 4-methyl-umbelliferyl phosphate (Sigma-Aldrich, St. Quentin Fallavier, France) as substrate. Emitted fluorescence was measured at 450 nm upon excitation at 365 nm by a Gemini fluorometer (Molecular probes, St Grégoire, France). […] Two independent experiments were performed to evaluate competitive binding.

HLA-DRB1*04:01 = target: T2, HLA-DRB1*04:01 (Homo sapiens, UniProt P01903+P01911, A100K/A169T/F76Y/I96L/K127E/L162R/M171V/N62H/P40V/Q125Y/R42H/S133A/S149N/S66Y/V115G/V209L/W38E); experiment: as above; settings: for binding to DR4 molecules, in words: competition with HA306-318, stated for DR1 or DR4; for ratio of IC50 of Art v 1-peptides/HA306-318, HLA-DR4: relative binding activity, competitive ELISA, pH 6.0, 24 h at 37°C, two independent experiments
T2 construct: endogenous in cells
Method: as §1

[1] = target: HLA-DRB1*01:01 molecules (human (endogenous in homozygous EBV cells)); experiment: ELISA
[2] = target: HLA-DRB1*04:01 molecules (human (endogenous in homozygous EBV cells)); experiment: ELISA
[3] = tested on: Art v 1_25-36-specific TCL and TCC with HLA-DR1-expressing APC; format: cell-based, human
Method: (§2) TCL or TCC (5 × 10^4 cells) were stimulated for 3 days with irradiated (60 Gy) APC and peptides at an optimum concentration of 3 μM, if not indicated otherwise. Proliferation was assessed by ^3H-thymidine uptake within the last 16 hours of incubation.

[4] = tested on: Art v 1_25-36-specific TCL and TCC with HLA-DR4-expressing APC; format: cell-based, human
Method: as §2

[5] = text statement for both HLA molecules

CDKKCIEWEKAQ [Art v 1_22-33]
binding to DR1 molecules, in words (HLA-DRB1*01:01): weak | ratio of IC50 of Art v 1-peptides/HA306-318, HLA-DR1 (HLA-DRB1*01:01): 2016 | binding to DR4 molecules, in words (HLA-DRB1*04:01): weak | ratio of IC50 of Art v 1-peptides/HA306-318, HLA-DR4 (HLA-DRB1*04:01): 756

KAIEWEKAGHGA [Ala-26, mono-substituted peptide of Art v 1_25-36]
ratio of IC50 of Art v 1-peptides/HA306-318, HLA-DR1 (HLA-DRB1*01:01): 16 | ratio of IC50 of Art v 1-peptides/HA306-318, HLA-DR4 (HLA-DRB1*04:01): 3

KCIAWEKAQHGA [Ala-28, mono-substituted peptide of Art v 1_25-36]
ratio of IC50 of Art v 1-peptides/HA306-318, HLA-DR1 (HLA-DRB1*01:01): 6 | ratio of IC50 of Art v 1-peptides/HA306-318, HLA-DR4 (HLA-DRB1*04:01): 11

KCIEWEKGQHGA [Gly-32, mono-substituted peptide of Art v 1_25-36]
ratio of IC50 of Art v 1-peptides/HA306-318, HLA-DR1 (HLA-DRB1*01:01): 63 | ratio of IC50 of Art v 1-peptides/HA306-318, HLA-DR4 (HLA-DRB1*04:01): 149

KCIEWEKAQAGA [Ala-34, mono-substituted peptide of Art v 1_25-36]
ratio of IC50 of Art v 1-peptides/HA306-318, HLA-DR1 (HLA-DRB1*01:01): 8 | ratio of IC50 of Art v 1-peptides/HA306-318, HLA-DR4 (HLA-DRB1*04:01): 17

KCIEWEKAQHAA [Ala-35, mono-substituted peptide of Art v 1_25-36]
ratio of IC50 of Art v 1-peptides/HA306-318, HLA-DR1 (HLA-DRB1*01:01): 5 | ratio of IC50 of Art v 1-peptides/HA306-318, HLA-DR4 (HLA-DRB1*04:01): 5

Art v 1_(25-36) Ala-26 (peptide)
other [1]: 16 | other [2]: 3

KCIEWEKAQHGA [Art v 1_25-36]
ratio of IC50 of Art v 1-peptides/HA306-318, HLA-DR1 (HLA-DRB1*01:01): 14 | binding less than HA306-318, HLA-DR1 (HLA-DRB1*01:01; [5]): 15 fold | ratio of IC50 of Art v 1-peptides/HA306-318, HLA-DR4 (HLA-DRB1*04:01): 15 | binding less than HA306-318, HLA-DR4 (HLA-DRB1*04:01; [5]): 15 fold | median proliferation of TCC, DR1 [3]: 36,640 dpm | median proliferation of TCL, DR1 [3]: 31,630 dpm | TCC that did not respond to presentation by DR4 [4]: 18% | TCC that recognized the peptide presented by DR4 [4]: 82% | median proliferation of TCC, DR4 [4]: 24,125 dpm | median proliferation of TCL, DR4 [4]: 25,985 dpm

NKKCDKKCIEWE [Art v 1_19–30]
binding to DR1 molecules, in words (HLA-DRB1*01:01): negligible | ratio of IC50 of Art v 1-peptides/HA306-318, HLA-DR1 (HLA-DRB1*01:01): >55032 | binding to DR4 molecules, in words (HLA-DRB1*04:01): negligible | ratio of IC50 of Art v 1-peptides/HA306-318, HLA-DR4 (HLA-DRB1*04:01): >926

KCAEWEKAQHGA [Ala-27, mono-substituted peptide of Art v 1_25-36]
ratio of IC50 of Art v 1-peptides/HA306-318, HLA-DR1 (HLA-DRB1*01:01): 2596 | ratio of IC50 of Art v 1-peptides/HA306-318, HLA-DR4 (HLA-DRB1*04:01): >926

KCIEWEAAQHGA [Ala-31, mono-substituted peptide of Art v 1_25-36]
ratio of IC50 of Art v 1-peptides/HA306-318, HLA-DR1 (HLA-DRB1*01:01): 17 | ratio of IC50 of Art v 1-peptides/HA306-318, HLA-DR4 (HLA-DRB1*04:01): 17

KCIEWAKAQHGA [Ala-30, mono-substituted peptide of Art v 1_25-36]
ratio of IC50 of Art v 1-peptides/HA306-318, HLA-DR1 (HLA-DRB1*01:01): 6 | ratio of IC50 of Art v 1-peptides/HA306-318, HLA-DR4 (HLA-DRB1*04:01): 28

Art v 1_(22-33) (peptide)
other [1]: 2020 | other [2]: 756

Art v 1_(25-36) (peptide)
other [1]: 14 | other [2]: 15

KCIAWEKAQHGA [Art v 1_(25-36) Ala-28]
other [1]: 6 | other [2]: 11

KCIEWEKAQAGA [Art v 1_(25-36) Ala-34]
other [1]: 8 | other [2]: 17

KCAEWEKAQHGA [Art v 1_(25-36) Ala-27]
other [1]: 2600

KCIEWEKGQHGA [Art v 1_(25-36) Gly-32]
other [1]: 63 | other [2]: 149

KCIEWAKAQHGA [Art v 1_(25-36) Ala-30]
other [1]: 6 | other [2]: 28

KCIEWEKAQHAA [Art v 1_(25-36) Ala-35]
other [1]: 5 | other [2]: 5

KCIEWEAAQHGA [Art v 1_(25-36) Ala-31]
other [1]: 17 | other [2]: 17
